# Assay results from paper PMC6846668 (Nucleic Acids Research, 2019).
# T1: PolIV (Escherichia coli, UniProt Q47155)
# T1 sequence (Q47155 1-351): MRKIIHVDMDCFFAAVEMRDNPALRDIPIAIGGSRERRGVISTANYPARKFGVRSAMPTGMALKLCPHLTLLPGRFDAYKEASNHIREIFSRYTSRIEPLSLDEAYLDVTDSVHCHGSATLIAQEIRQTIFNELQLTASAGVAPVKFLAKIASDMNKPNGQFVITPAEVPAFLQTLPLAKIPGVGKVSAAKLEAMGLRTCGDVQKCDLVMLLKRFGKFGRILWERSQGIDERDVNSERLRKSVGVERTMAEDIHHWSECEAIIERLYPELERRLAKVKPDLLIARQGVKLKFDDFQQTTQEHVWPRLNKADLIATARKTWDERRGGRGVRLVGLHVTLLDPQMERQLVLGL
# Columns and labels:
# PolIV = target: T1, PolIV; experiment: primer extension, gel; format: biochemical; details: 6FAM primer/template, 2.5 mM MnCl2, pH 8.0, 37°C
# [1] = substrate: Nc1ccn([C@@H]2O[C@H](COP(=O)(O)OP(=O)(O)OP(=O)(O)O)[C@@H](O)[C@H]2O)c(=O)n1; experiment: primer extension, Lineweaver-Burk; format: biochemical, Mycolicibacterium smegmatis; details: 6FAM 15mer primer/50mer template, 2.5 mM MnCl2, pH 8.0, 37°C
Molecule,"primer extension, gel (PolIV)",Km [1],kcat [1],kcat/Km [1]
Nc1ccn([C@H]2C[C@H](O)[C@@H](COP(=O)(O)OP(=O)(O)OP(=O)(O)O)O2)c(=O)n1 [dCTP],mutations did not show a significant difference in the ability of PolIV to incorporate dCTP,–,–,–
MsDpo4 (Mycolicibacterium smegmatis MC2 155) (protein) MTKWVLHVDLDQFLASVELRRRPDLRGQPVIVGGSGDPSEPRKVVTCASYEAREFGVHAGMPLRAAARRCPDATFLPSDPAAYDEASEQVMGLLRDLGHPLEVWGWDEAYLGADLPDESDPVEVAERIRTVVAAETGLSCSVGISDNKQRAKVATGFAKPAGIYVLTEANWMTVMGDRPPDALWGVGPKTTKKLAAMGITTVADLAVTDPSVLTTAFGPSTGLWLLLLAKGGGDTEVSSEPWVPRSRSHVVTFPQDLTERREMDSAVRDLALQTLAEIVEQGRIVTRVAVTVRTSTFYTRTKIRKLPAPSTDAGQIVDTALAVLDQFELDRPVRLLGVRLELAMDDVPRPAVTAGT,–,55.3 ± 4.0 µM,0.011 ± 0.00117 s⁻¹,167 ± 16.7 M⁻¹ s⁻¹
MsDpo4 (Mycolicibacterium smegmatis MC2 155; L14Y) (protein) MTKWVLHVDLDQFYASVELRRRPDLRGQPVIVGGSGDPSEPRKVVTCASYEAREFGVHAGMPLRAAARRCPDATFLPSDPAAYDEASEQVMGLLRDLGHPLEVWGWDEAYLGADLPDESDPVEVAERIRTVVAAETGLSCSVGISDNKQRAKVATGFAKPAGIYVLTEANWMTVMGDRPPDALWGVGPKTTKKLAAMGITTVADLAVTDPSVLTTAFGPSTGLWLLLLAKGGGDTEVSSEPWVPRSRSHVVTFPQDLTERREMDSAVRDLALQTLAEIVEQGRIVTRVAVTVRTSTFYTRTKIRKLPAPSTDAGQIVDTALAVLDQFELDRPVRLLGVRLELAMDDVPRPAVTAGT,–,59.54 ± 13.4 µM,0.00167 ± 0.000167 s⁻¹,26.7 ± 5 M⁻¹ s⁻¹
